Test results published in US20250002605A1 (WUHAN YZY BIOPHARMA, published 2025).

T1: human EpCAM on the cell surface (human, UniProt P16422 24-314)
T1 construct: whole, on cells; also called EpCAM of cells; HCT116 cells
T1 sequence (looked up): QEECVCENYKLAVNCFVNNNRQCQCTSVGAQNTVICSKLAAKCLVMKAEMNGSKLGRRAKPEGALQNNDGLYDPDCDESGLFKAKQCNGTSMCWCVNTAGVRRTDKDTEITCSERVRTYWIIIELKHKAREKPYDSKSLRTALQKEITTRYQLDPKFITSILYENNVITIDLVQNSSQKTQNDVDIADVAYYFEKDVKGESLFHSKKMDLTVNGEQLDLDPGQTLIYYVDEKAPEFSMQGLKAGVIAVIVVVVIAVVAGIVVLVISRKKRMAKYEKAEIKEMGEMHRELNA

T2: human EpCAM antigen (SB, Cat: 10694-H08H) (human, UniProt P16422 24-265)
T2 construct: Bought antigen immobilised on a CM5 chip
T2 sequence (looked up): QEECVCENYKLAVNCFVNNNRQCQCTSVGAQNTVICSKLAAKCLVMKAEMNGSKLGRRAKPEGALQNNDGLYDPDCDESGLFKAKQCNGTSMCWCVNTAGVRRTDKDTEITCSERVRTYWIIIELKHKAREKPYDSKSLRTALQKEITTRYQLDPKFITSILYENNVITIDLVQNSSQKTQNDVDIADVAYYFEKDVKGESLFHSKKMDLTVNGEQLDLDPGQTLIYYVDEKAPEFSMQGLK

B1: M701 (bispecific antibody, human IgG1, kappa)
light: ELVMTQSPSSLTVTAGEKVTMSCKSSQSLLNSGNQKNYLTWYQQKPGQPPKLLIYWASTRESGVPDRFTGSGSGTDFTLTISSVQAEDLAVYYCQNDYSYPLTFGAGTKLEIKRTVAAPSVFIFPPSDEQLKSGTASVVCLLNNFYPREAKVQWKVDNALQSGNSQESVTEQDSKDSTYSLSSTLTLSKADYEKHKVYACEVTHQGLSSPVTKSFNRGEC
heavy: EVQLLEQSGAELVRPGTSVKISCKASGYAFTNYWLGWVKQRPGHGLEWIGDIFPGSGNIHYNEKFKGKATLTADKSSSTAYMQLSSLTFEDSAVYFCARLRNWDEPMDYWGQGTTVTVSSASTKGPSVFPLAPSSKSTSGGTAALGCLVKDYFPEPVTVSWNSGALTSGVHTFPAVLQSSGLYSLSSVVTVPSSSLGTQTYICNVNHKPSNTKVDKKVEPKSCDKTHTCPPCPAPELLGGPSVFLFPPKPKDTLMISRTPEVTCVVVDVSHEDPEVKFNWYVDGVEVHNAKTKPREEQYNSTYRVVSVLTVLHQDWLNGKEYKCKVSNKALPAPIEKTISKAKGQPREPQVYTLPPSRDELTKNQVSLWCLVKGFYPSDIAVEWESNGQPENNYDTTPPVLDSDGSFFLYSDLTVDKSRWQQGNVFSCSVMHEALHNHYTQKSLSLSPGK
chain: not shown
notes: also called bispecific antibody M701
B2: M701D (bispecific antibody, human IgG1, kappa)
light: B1 light
heavy: B1 heavy
chain: EVQLLESGGGLVQPGGSLRLSCAASGFTFSSFPMAWVRQAPGKGLEWVSTISTSGGRTYYRDSVKGRFTISRDNSKNTLYLQMNSLRAEDTAVYYCAKFRQYSGGFDYWGQGTLVTVSSGGGGSGGGGSGGGGSDIQLTQPNSVSTSLGSTVKLSCTLSSGNIENNYVHWYQLYEGRSPTTMIYDDDKRPDGVPDRFSGSIDRSSNSAFLTIHNVAIEDEAIYFCHSYVSSFNVFGGGTKLTVLRQPGAAAEPKSCDKTHTCPPCPAPELLGGPSVFLFPPKPKDTLMISRTPEVTCVVVDVSHEDPEVKFNWYVDGVEVHNAKTKPREEQYNSTYRVVSVLTVLHQDWLNGKEYKCKVSNKALPAPIEKTISKAKGQPREPQVYTLPPSRDELTKNQVSLTCRVKGFYPSDIAVEWESNGQPENNYKTTPPVLKSDGSFFLASKLTVDKSRWQQGNVFSCSVMHEALHNHYTQKSLSLSPGK
notes: YBODY format; also called bispecific antibody M701D
B3: M701G (bispecific antibody, human IgG1, kappa)
light: B1 light
heavy: B1 heavy
chain: EVQLVESGGGLVQPGGSLRLSCAASGYSFTGYTMNWVRQAPGKGLEWVALINPYKGVSTYNQKFKDRFTISVDKSKNTAYLQMNSLRAEDTAVYYCARSGYYGDSDWYFDVWGQGTLVTVSSGGGGSGGGGSGGGGSDIQMTQSPSSLSASVGDRVTITCRASQDIRNYLNWYQQKPGKAPKLLIYYTSRLESGVPSRFSGSGSGTDYTLTISSLQPEDFATYYCQQGNTLPWTFGQGTKVEIKGAAAEPKSCDKTHTCPPCPAPELLGGPSVFLFPPKPKDTLMISRTPEVTCVVVDVSHEDPEVKFNWYVDGVEVHNAKTKPREEQYNSTYRVVSVLTVLHQDWLNGKEYKCKVSNKALPAPIEKTISKAKGQPREPQVYTLPPSRDELTKNQVSLTCRVKGFYPSDIAVEWESNGQPENNYKTTPPVLKSDGSFFLASKLTVDKSRWQQGNVFSCSVMHEALHNHYTQKSLSLSPGK
notes: YBODY format; also called bispecific antibody M701G
B4: M701C (bispecific antibody, human IgG1, kappa)
light: B1 light
heavy: B1 heavy
chain: EVQLVESGGGLVQPGGSLRLSCKASGYTFTRYTMHWVRQAPGKGLEWIGYINPSRGYTNYNQKVKDRFTISRDNSKNTAFLQMDSLRPEDTGVYFCARYYDDHYCLDYWGQGTPVTVSSGGGGSGGGGSGGGGSDIQMTQSPSSLSASVGDRVTITCSASSSVSYMNWYQQTPGKAPKRWIYDTSKLASGVPSRFSGSGSGTDYTFTISSLQPEDIATYYCQQWSSNPFTFGQGTKVEIKRGAAAEPKSCDKTHTCPPCPAPELLGGPSVFLFPPKPKDTLMISRTPEVTCVVVDVSHEDPEVKFNWYVDGVEVHNAKTKPREEQYNSTYRVVSVLTVLHQDWLNGKEYKCKVSNKALPAPIEKTISKAKGQPREPQVYTLPPSRDELTKNQVSLTCRVKGFYPSDIAVEWESNGQPENNYKTTPPVLKSDGSFFLASKLTVDKSRWQQGNVFSCSVMHEALHNHYTQKSLSLSPGK
notes: YBODY format; also called bispecific antibody M701C
B5: M701E (bispecific antibody)
light: B1 light
heavy: B1 heavy
chain: not shown
notes: YBODY format; also called bispecific antibody M701E
B6: M701F (bispecific antibody, human IgG1, kappa)
light: B1 light
heavy: B1 heavy
chain: QVQLVQSGAEVKKPGASVKVSCKASGYTFISYTMHWVRQAPGQGLEWMGYINPRSGYTHYNQKLKDKATLTADKSASTAYMELSSLRSEDTAVYYCARSAYYDYDGFAYWGQGTLVTVSSGGGGSGGGGSGGGGSDIQMTQSPSSLSASVGDRVTITCSASSSVSYMNWYQQKPGKAPKRLIYDTSKLASGVPSRFSGSGSGTDFTLTISSLQPEDFATYYCQQWSSNPPTFGGGTKVEIKRGAAAEPKSCDKTHTCPPCPAPELLGGPSVFLFPPKPKDTLMISRTPEVTCVVVDVSHEDPEVKFNWYVDGVEVHNAKTKPREEQYNSTYRVVSVLTVLHQDWLNGKEYKCKVSNKALPAPIEKTISKAKGQPREPQVYTLPPSRDELTKNQVSLTCRVKGFYPSDIAVEWESNGQPENNYKTTPPVLKSDGSFFLASKLTVDKSRWQQGNVFSCSVMHEALHNHYTQKSLSLSPGK
notes: YBODY format; also called bispecific antibody M701F
B7: M701J (bispecific antibody, human IgG1, kappa)
light: B1 light
heavy: EVQLLEQSGAELVRPGTSVKISCKASGYAFTNYWLGWVKQRPGHGLEWIGDIFPGSGNIHYNEKFKGKATLTADKSSSTAYMQLSSLTFEDSAVYFCARLRNWDEPMDYWGQGTTVTVSSASTKGPSVFPLAPSSKSTSGGTAALGCLVKDYFPEPVTVSWNSGALTSGVHTFPAVLQSSGLYSLSSVVTVPSSSLGTQTYICNVNHKPSNTKVDKKVEPKSCDKTHTCPPCPAPPVAGPSVFLFPPKPKDTLMISRTPEVTCVVVDVSHEAPEVQFNWYVDGVEVHNAKTKPREEQFNSTFRVVSVLTVVHQDWLNGKEYKCKVSNKGLPAPIEKTISKTKGQPREPQVYTLPPCRDELTKNQVSLWCLVKGFYPSDIAVEWESNGQPENNYKTTPPVLDSDGSFFLYSKLTVDKSRWQQGNVFSCSVMHEALHNHYTQKSLSLSPGK
chain: not shown
notes: YBODY format; also called bispecific antibody M701J
B8: M700 monoclonal antibody (antibody, human IgG1, kappa, V domains shown)
VH: VQLLEQSGAELVRPGTSVKISCKASGYAFTNYWLGWVKQRPGHGLEWIGDIFPGSGNIHYNEKFKGKATLTADKSSSTAYMQLSSLTFEDSAVYFCARLRNWDEPMDYWGQGTTVTVSS
VL: ELVMTQSPSSLTVTAGEKVTMSCKSSQSLLNSGNQKNYLTWYQQKPGQPPKLLIYWASTRESGVPDRFTGSGSGTDFTLTISSVQAEDLAVYYCQNDYSYPLTFGAGTKLEIKR
notes: also called anti-EpCAM monoclonal antibody control

Tests used:
[1] = target: T1, human EpCAM on the cell surface; experiment: flow cytometry (FACS) on HCT116 cells, PE anti-human IgG Fc detection
[2] = target: T1, human EpCAM on the cell surface; experiment: cell-based or functional assay
[3] = target: T2, human EpCAM antigen (SB, Cat: …); experiment: SPR (Biacore T200), antigen amine-coupled on CM5, antibody as analyte, 1:1 fit; D0 sample
[4] = target: human CD3 antigen (SB, Cat: CT038-H2508H) (human, UniProt P07766 23-126; P04234 22-105); experiment: as above
[5] = target: T2, human EpCAM antigen (SB, Cat: …); experiment: SPR (Biacore T200), antigen amine-coupled on CM5, antibody as analyte, 1:1 fit; D14 sample after 14 days at 40 C

Row | Binder | EC50 [1] [nM] | killing EC50 (PBMC effector cells, HCT116 target cells) [2] [µg/mL] | Kd [3] [nM] | Kd [4] [nM] | Kd [5] [nM]
1 | B1 | 10.5 | 0.0692 |  |  | 
2 | B2 |  |  | 14.4 |  | 
3 | B3 |  |  | 19.7 | 18.8 | 
4 | B4 |  |  | 18.6 | 37.2 | 
5 | B5 |  |  | 23.1 |  | 
6 | B6 |  |  | 17.9 | 61.3 | 
7 | B7 | 3.78 |  | 18.2 |  | 18.7
8 | B8 | 1.78 |  |  |  | 
